One molecule from publication PMC5809584, “Plastic roles of phenylalanine and tyrosine residues of TLS/FUS in complex formation with the G-quadruplexes of telomeric DNA and TERRA” can be followed below.

For the series, the target named is RGG3 of TLS/FUS (UniProt P35637 454-526). Nature of the series: NMR CSP; equivalent amount, 50 mM KCl; NMR: 20 mM K-phosphate pH 6.2, 50 mM KCl, 1 mM DTT, 0.1 mM DSS, 5% D2O, 298 K; FA: 20 C (nucleic acids annealed in 20 mM K-phosphate pH 6.2, 50 mM KCl); EMSA: 50 mM Tris-HCl pH 7.5, 100 mM KCl, 0.5 mM EDTA, 0.5 mM DTT, 0.2 mg/mL BSA, 1 ug/mL calf thymus DNA, 20 C. Conditions: protein: recombinant; tags: GST removed with PreScission; residual GST-vector residues at N-terminus; G4, heterogeneous. Background: A gel shift assay detects complexes by their altered migration in electrophoresis.
RGG3 of TLS/FUS, sequence (P35637 454-526): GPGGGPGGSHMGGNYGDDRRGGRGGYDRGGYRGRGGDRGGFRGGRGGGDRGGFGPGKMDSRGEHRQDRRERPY

As for UUAGGGUUAGGGUUAGGGUUAGGG (structured_RNA) [TERRA24], the binding result is recorded as “binds”.
